The results in this text go back to the supplement of paper PMC10567573.

B1: PPEF2 (parent)
chain: AFKAAALIQRWYRRYVARLEMRRR
B2: C8orf76 (parent)
chain: LYLQLAICSSLQNLEKTIFCLQKL
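Further: lentivirally expressed fusions sorted by FACS into six bins by GFP to DsRed ratio, PSI derived from sequencing read proportions per bin multiplied by bin number.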

Variants of B1 are the subject of the first data set. As to the kind of experiment: protein stability index of a GFP-peptide fusion (GPS, HEK-293T) (PSI 1-6); higher = more stable. Conditions: c terminus: a fixed tail appended.
In the case of AFKAAALIQRGYRRYVARLEMRRR, the protein stability index was 2.55.

For AFKAAALIQRYYRRYVARLEMRRR, the protein stability index came to 3.91.

As for AFKAAALIQREYRRYVARLEMRRR, the protein stability index is 2.46.

On to AFKAAAMIQRWYRRYVARLEMRRR, for which the protein stability index turned out to be 2.25.

Turning to AFKAAAQIQRWYRRYVARLEMRRR, the protein stability index is 4.96.

Regarding AFKAAAIIQRWYRRYVARLEMRRR, the protein stability index worked out at 4.77.

Turning to AFKAAATIQRWYRRYVARLEMRRR, the protein stability index stood at 4.39.

AFKAAAAIQRWYRRYVARLEMRRR: the protein stability index amounted to 4.83.

AFKAAARIQRWYRRYVARLEMRRR: the protein stability index was found to be 5.03.

AFKAAAFIQRWYRRYVARLEMRRR: the protein stability index turned out to be 3.21.

Consider AFKAAAGIQRWYRRYVARLEMRRR, for which the protein stability index worked out at 2.33.

For AFKAAANIQRWYRRYVARLEMRRR, the protein stability index is 2.64.

In the case of AFKAAASIQRWYRRYVARLEMRRR, the protein stability index was 2.93.

With AFKAAALIQRWIRRYVARLEMRRR, the protein stability index was determined as 2.53.

On to AFKAAALIQRWRRRYVARLEMRRR, for which the protein stability index amounted to 1.15.

As to AFKAAALIQRWNRRYVARLEMRRR, the protein stability index is 1.62.

For the variant AFKAAALIQRWKRRYVARLEMRRR, the protein stability index is 1.78.

Take AFKAAALIQRWHRRYVARLEMRRR: the protein stability index was 2.29.

As for AFKAAALIQRWGRRYVARLEMRRR, the protein stability index amounted to 1.49.

Consider AFKAAALIQRWTRRYVARLEMRRR, for which the protein stability index was 2.17.

For AFKAAALIQRWPRRYVARLEMRRR, the protein stability index stood at 2.44.

Take AFKAAALIQRWERRYVARLEMRRR: the protein stability index was found to be 3.14.

Consider AFKAAALIQRWCRRYVARLEMRRR, for which the protein stability index was 2.14.

For the variant AFKAAALIQRWFRRYVARLEMRRR, the protein stability index was determined as 3.17.

On to AFKAAALIQRWMRRYVARLEMRRR, for which the protein stability index is 2.95.

Regarding AFKAAALIQRWARRYVARLEMRRR, the protein stability index amounted to 2.35.

For the variant AFKAAPLIQRWYRRYVARLEMRRR, the protein stability index was 1.95.

As to AFKAAELIQRWYRRYVARLEMRRR, the protein stability index stood at 3.81.

For AFKAATLIQRWYRRYVARLEMRRR, the protein stability index was 4.02.

Consider AFKAACLIQRWYRRYVARLEMRRR, for which the protein stability index is 4.25.

Consider AFKAAVLIQRWYRRYVARLEMRRR, for which the protein stability index is 4.97.

On to AFKAADLIQRWYRRYVARLEMRRR, for which the protein stability index is 3.14.

Turning to AFKAAYLIQRWYRRYVARLEMRRR, the protein stability index worked out at 1.75.

With AFKAAQLIQRWYRRYVARLEMRRR, the protein stability index was 3.88.

Consider AFKAAFLIQRWYRRYVARLEMRRR, for which the protein stability index came out at 2.77.

Regarding AFKAAKLIQRWYRRYVARLEMRRR, the protein stability index is 2.83.

Consider AFKAALLIQRWYRRYVARLEMRRR, for which the protein stability index was 2.5.

For AFKAAALSQRWYRRYVARLEMRRR, the protein stability index stood at 4.29.

For AFKAAALCQRWYRRYVARLEMRRR, the protein stability index worked out at 3.52.

AFKAAALKQRWYRRYVARLEMRRR: the protein stability index turned out to be 3.15.

In the case of AFKAAALVQRWYRRYVARLEMRRR, the protein stability index came out at 3.41.

AFKAAALLQRWYRRYVARLEMRRR: the protein stability index was 3.02.

Take AFKAAALNQRWYRRYVARLEMRRR: the protein stability index came out at 2.98.

Consider AFKAAALFQRWYRRYVARLEMRRR, for which the protein stability index was determined as 2.29.

Take AFKAAALYQRWYRRYVARLEMRRR: the protein stability index was determined as 2.19.

With AFKAAALRQRWYRRYVARLEMRRR, the protein stability index is 3.09.

Regarding AFKAAALHQRWYRRYVARLEMRRR, the protein stability index was 2.16.

As for AFKAAALDQRWYRRYVARLEMRRR, the protein stability index turned out to be 3.02.

Regarding AFKAAALAQRWYRRYVARLEMRRR, the protein stability index was determined as 2.38.

As for AFKAAALTQRWYRRYVARLEMRRR, the protein stability index came out at 2.37.

With AFKAAALMQRWYRRYVARLEMRRR, the protein stability index was determined as 1.94.

In the next data set the parent is B2. The data set is described as above. To be noted: c terminus: a fixed tail appended.
Regarding LYLQLAICSSLQNLEKTIFCLQKD, the protein stability index stood at 4.2.

As for LYLQLAICSSLQNLEKTIFCLQKA, the protein stability index came out at 2.13.

Take LYLQLAICSSLQNLEKTIFCLQKK: the protein stability index amounted to 3.43.

For LYLQLAICSSLQNLEKTIFCLQKS, the protein stability index turned out to be 1.49.

With LYLQLAICSSLQNLEKTIFCLQKC, the protein stability index turned out to be 3.89.

With LYLQLAICSSLQNLEKTIFCLQKP, the protein stability index was found to be 4.07.

On to LYLQLAICSSLQNLEKTIFCLQKI, for which the protein stability index was found to be 2.35.

With LYLQLAICSSLQNLEKTIFCLQKW, the protein stability index turned out to be 2.79.

Turning to LYLQLAICSSLQNLEKTIFCLQKF, the protein stability index is 3.39.

With LYLQLAICSSLQNLEKTIFCLQKE, the protein stability index was found to be 1.75.

For the variant LYLQLAICSSLQNLEKTIFCLQKQ, the protein stability index was 3.56.

Regarding LYLQLAICSSLQNLEKTIFCLVKL, the protein stability index turned out to be 2.58.

With LYLQLAICSSLQNLEKTIFCLIKL, the protein stability index turned out to be 1.46.

As for LYLQLAICSSLQNLEKTIFCLTKL, the protein stability index stood at 3.32.

LYLQLAICSSLQNLEKTIFCLFKL: the protein stability index came to 3.5.

As for LYLQLAICSSLQNLEKTIFCLDKL, the protein stability index was found to be 2.46.

For the variant LYLQLAICSSLQNLEKTIFCLWKL, the protein stability index amounted to 1.93.

Turning to LYLQLAICSSLQNLEKTIFCLSKL, the protein stability index was 1.58.

LYLQLAICSSLQNLEKTIFCLCKL: the protein stability index stood at 2.56.

Consider LYLQLAICSSLQNLEKTIFCLPKL, for which the protein stability index amounted to 2.69.

LYLQLAICSSLQNLEKTIFCLMKL: the protein stability index was 3.12.

With LYLQLAICSSLQNLEKTIFCLKKL, the protein stability index was 3.39.

Turning to LYLQLAICSSLQNLEKTIFCLNKL, the protein stability index is 2.31.

LYLQLAICSSLQNLEKTIFCNQKL: the protein stability index was determined as 2.25.

For LYLQLAICSSLQNLEKTIFCSQKL, the protein stability index came to 2.59.

Turning to LYLQLAICSSLQNLEKTIFCPQKL, the protein stability index amounted to 3.85.

For the variant LYLQLAICSSLQNLEKTIFCHQKL, the protein stability index came out at 2.76.

Regarding LYLQLAICSSLQNLEKTIFCRQKL, the protein stability index came to 2.08.

Turning to LYLQLAICSSLQNLEKTIFCYQKL, the protein stability index stood at 3.14.

Consider LYLQLAICSSLQNLEKTIFCLQIL, for which the protein stability index worked out at 2.72.

Consider LYLQLAICSSLQNLEKTIFCLQQL, for which the protein stability index worked out at 4.24.

With LYLQLAICSSLQNLEKTIFCLQSL, the protein stability index was found to be 1.89.

LYLQLAICSSLQNLEKTIFCLQPL: the protein stability index stood at 2.54.

Take LYLQLAICSSLQNLEKTIFCLQYL: the protein stability index was 3.53.

Turning to LYLQLAICSSLQNLEKTIFCLQWL, the protein stability index was 3.62.

Turning to LYLQLAICSSLQNLEKTIFCLQNL, the protein stability index is 2.11.

Consider LYLQLAICSSLQNLEKTIFCLQDL, for which the protein stability index worked out at 2.02.

As for LYLQLAICSSLQNLEKTIFCLQLL, the protein stability index came to 2.27.

For the variant LYLQLAICSSLQNLEKTIFCLQML, the protein stability index was 1.58.

LYLQLAICSSLQNLEKTIFCLQFL: the protein stability index came to 2.92.

On to LYLQLAICSSLQNLEKTIFCLQGL, for which the protein stability index is 3.17.

Take LYLQLAICSSLQNLEKTIFCLQRL: the protein stability index turned out to be 3.49.

Take LYLQLAICSSLQNLEKTIFCLQTL: the protein stability index turned out to be 2.15.
